Target: Methanocaldococcus jannaschii Bud32 (Methanocaldococcus jannaschii) (UniProt Q58530)
Sequence (Q58530 whole entry): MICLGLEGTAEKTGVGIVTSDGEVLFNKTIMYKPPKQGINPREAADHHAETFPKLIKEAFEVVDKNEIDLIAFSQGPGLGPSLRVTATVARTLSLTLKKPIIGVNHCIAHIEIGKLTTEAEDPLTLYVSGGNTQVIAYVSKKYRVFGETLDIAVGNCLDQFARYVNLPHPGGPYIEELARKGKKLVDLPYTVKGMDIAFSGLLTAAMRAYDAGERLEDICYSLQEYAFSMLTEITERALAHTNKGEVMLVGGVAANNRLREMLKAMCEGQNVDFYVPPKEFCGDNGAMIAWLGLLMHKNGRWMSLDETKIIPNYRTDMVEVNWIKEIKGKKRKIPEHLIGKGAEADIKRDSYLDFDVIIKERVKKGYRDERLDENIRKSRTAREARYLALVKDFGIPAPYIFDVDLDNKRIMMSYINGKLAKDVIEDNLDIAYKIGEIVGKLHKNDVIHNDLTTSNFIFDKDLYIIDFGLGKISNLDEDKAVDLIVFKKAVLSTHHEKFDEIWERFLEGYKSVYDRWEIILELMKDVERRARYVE

- ATPase activity of mjBud32 (ADP Glo assay), potentiation by mjCgi121: 10 fold
B1: Methanocaldococcus jannaschii Cgi121 (natural protein)
chain: MIIRGIRGARINNEIFNLGLKFQILNADVVATKKHVLHAINQAKTKKPIAKSFWMEILVRASGQRQIHEAIKIIGAKDGNVCLICEDEETFRKIYELIGGEIDDSVLEINEDKERLIREIFKIRGFGNVVERVLEKIALIELKKE

Source: article PMC7718258
